From article PMC5686140, “Structural disorder and induced folding within two cereal, ABA stress and ripening (ASR) proteins” (Scientific Reports, 2017)

Molecular target: the molecule itself
Assay: native MS; native ESI-MS, Synapt G2-Si; proteins buffer-exchanged into 250 mM ammonium acetate, pH 8.0, infused at 15 μM; source temperature 30 °C

B1: alcohol dehydrogenase (enzyme, UniProt P00330 1-348, looked up)
chain: MSIPETQKGVIFYESHGKLEYKDIPVPKPKANELLINVKYSGVCHTDLHAWHGDWPLPVKLPLVGGHEGAGVVVGMGENVKGWKIGDYAGIKWLNGSCMACEYCELGNESNCPHADLSGYTHDGSFQQYATADAVQAAHIPQGTDLAQVAPILCAGITVYKALKSANLMAGHWVAISGAAGGLGSLAVQYAKAMGYRVLGIDGGEGKEELFRSIGGEVFIDFTKEKDIVGAVLKATDGGAHGVINVSVSEAAIEASTRYVRANGTTVLVGMPAGAKCCSDVFNQVVKSISIVGSYVGNRADTREALDFFARGLVKSPIKVVGLSTLPEIYEKMEKGQIVGRYVVDTSK
notes: alcohol dehydrogenase (ADH, a tetrameric protein), control of the native ESI-MS; Species surmised: the tetrameric ADH commonly used as a native MS standard is that of S. cerevisiae; also called ADH
stoichiometry N: 4
